Source: patent US20150274831A1

Assays:
Assay in all cases: cell-based or functional assay
[1] = target: human mutant CSF-1R L301S Y969F, full-length, on cells (human) (UniProt P07333)
[2] = target: human wildtype CSF-1R (wt CSF-1R), full-length, on cells (human) (UniProt P07333)
[3] = target: CSF-1R on cynomolgous monocytes (native receptor of CD14-enriched peripheral blood monocytes) (cynomolgous)

IC50 CSF-1R Phosphorylation [2] [µg/mL] | % inhibition at 20 µg/ml (mutant CSF-1R cells) [1] [%] | Substance | Mutant CSF-1R IC30 [µg/ml] (cell viability, 3D culture, CellTiterGlo) [1] [µg/mL] | Mutant CSF-1R IC50 [µg/ml] (cell viability, 3D culture, CellTiterGlo) [1] [µg/mL] | wtCSF-1R IC30 [µg/ml] (cell viability, 3D culture, CellTiterGlo) [2] [µg/mL] | wtCSF-1R IC50 [µg/ml] (cell viability, 3D culture, CellTiterGlo) [2] [µg/mL] | % inhibition (of survival) = (100% - % survival) (CellTiterGlo; cynomolgous monocytes with 150 ng/ml huCSF-1; 5 µg/ml antibody) [3] [%] | % survival (CellTiterGlo; cynomolgous monocytes with 150 ng/ml huCSF-1; 5 µg/ml antibody) [3] [%]
1.01 | – | Anti CSF-1R SC 2-4A5 (Santa Cruz Biotechnology, US) (antibody) | 2.56 | 10 | 16.6 | 10 | 69 | 31
– | 0 | goat polyclonal anti-CSF-1R antibody ab10676 (abcam) | > 20 | – | 14.2 | – | – | –
